Assay results as given in patent US20040131613A1 (published 2004).

Molecular target: T1, human TNF-α (human, UniProt P01375 77-233)
T1 construct: It was biotinylated in the plaque lift and on-rate ELISA, and coated on plates or beads in the other assays; also called hTNF-α; hTNF
Test: kinetic exclusion assay (KinExA 3000), 40 pM Fab with 400 pM hTNF-α, time course
Method: Next, binding kinetics of three of the Fab fragments described in Table 4 were determined in a kinetic exclusion assay. Affinity measurements were performed on a KinExA™3000 instrument (Sapidyne Instruments, Inc., Boise, Id.) using Fab fragments (A10K, A9K, and A10P) released from the periplasmic space whose concentration was determined by a quantitative ELISA. Briefly, antigen and antibody fragment were allowed to react in solution and the fraction of unbound reagent was determined by capture and measured on a bead support. Binding kinetics can be determined or calculated from the amount of unbound reagent. For instance, after interaction between TNF-α and a Fab fragment has occurred in solution, binding of the unreacted, free Fab fragment to TNF-α coated beads can be measured on the instrument by detection with a labeled secondary antibody to the Fab fragment (e.g., a goat anti-IgG (heavy and light)). […] After the incubation, the amount of unbound Fab in the equilibrated samples was determined on the KinExA™3000 instrument according to the manufacturer's instructions. Kd values were determined by the instrument software.
To measure kₒₙ, individual Fab fragments at a concentration of 40 pM were mixed with 400 pM of hTNF-α. […] The resulting data was used to calculate the kₒₙ with the instrument software. koff was calculated by using the formula Kd=koff/kₒₙ.

T1 sequence (P01375 77-233 limits assumed): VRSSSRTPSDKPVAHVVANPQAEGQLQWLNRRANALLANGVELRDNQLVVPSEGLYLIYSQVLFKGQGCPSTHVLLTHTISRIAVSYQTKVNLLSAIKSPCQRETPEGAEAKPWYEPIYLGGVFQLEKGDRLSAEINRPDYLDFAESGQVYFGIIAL

B1: A10K Fab fragment (Fab, V domains shown)
VH: EVQLVESGGGLVQPGGSLRLSCAASGFKFSNHWMNWVRQAPGKGLEWVGEIRSKSMNSATHYAESVKGRFTISRDDSKNSLYLQMNSLKTEDTAVYYCARNYYGSTYDHWGQGTLVTVSS
VL: EIVLTQSPDFQSVTPKEKVTITCRASQFVGYSIHWYQQKPDQSPKLLIKYASESRSGVPSRFSGSGSGTDFTLTINSLEAEDAATYYCQQSHSWHFTFGQGTKVEIK
notes: Fab released from the E. coli periplasm; The light chain is kappa, since it was detected with anti-human kappa; Mutations against hu1: light S31Y, M55R
In the case of B1, the kon is reported as 3.92e+06 to 7.51e+06 M⁻¹ s⁻¹.
